# Assay results from patent publication US20110287023A1 (AstraZeneca / MedImmune, published 2011).
# Where a chain is given by its changes, count along the chain named.
# T1: HMGB1 in joint lysate of adjuvant induced arthritis (AIA) rats (rat, UniProt P63159 2-215)
# T1 construct: also called HMGB1 from arthritis joints; joint lysate HMGB1
# T1 sequence (looked up): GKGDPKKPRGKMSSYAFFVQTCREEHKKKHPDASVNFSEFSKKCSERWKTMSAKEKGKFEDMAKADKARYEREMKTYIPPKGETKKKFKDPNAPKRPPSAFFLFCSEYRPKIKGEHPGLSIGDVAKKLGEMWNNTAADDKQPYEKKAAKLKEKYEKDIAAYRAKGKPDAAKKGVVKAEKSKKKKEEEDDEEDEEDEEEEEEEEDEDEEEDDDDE
# T2: native nuclear HMG1 from freeze-thawed 293H cells (human, UniProt P09429 1-215)
# T2 construct: unpurified cell supernatant
# T2 sequence (looked up): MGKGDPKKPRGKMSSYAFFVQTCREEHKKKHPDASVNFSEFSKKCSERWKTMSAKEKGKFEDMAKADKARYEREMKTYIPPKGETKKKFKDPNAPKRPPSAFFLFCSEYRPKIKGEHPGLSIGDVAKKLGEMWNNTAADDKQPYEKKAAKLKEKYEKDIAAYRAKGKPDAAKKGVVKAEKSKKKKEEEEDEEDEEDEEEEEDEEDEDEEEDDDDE
# T3: activated HMG1 from LPS stimulated THP-1 cells (human, UniProt P09429 1-215)
# T3 sequence (looked up): T2 sequence (looked up)
# T4: recombinant rat HMGB-1 labelled with europium (rat, UniProt P63159 1-215, limits assumed, Eu label, molar ratio HMGB-1 to Eu 1:5)
# T4 construct: also called Europium-labeled HMGB-1
# T4 sequence (looked up): T2 sequence (looked up) with E189D, D202E
# T5: HMGB1 in sera of septic peritonitis mice (mouse, UniProt P63158 1-215)
# T5 construct: also called HMGB1 from sepsis sera (ELISA); peritonitis sera HMGB1
# T5 sequence (looked up): T2 sequence (looked up) with E189D, D202E
# B1: human anti-HMG1 antibody G4 (antibody, IgG1, V domains shown)
# VH: EVQLLESGGGLVQPGGSLRLSCAASGFTFSWYDMTWVRQAPGKGLEWVSSISPSGGYTKYADSVKGRFTISRDNSKNTLYLQMNSLRAEDTAVYYCTTEFYDYLDVWGKGTTVTVSS
# VL: DIQMTQSPGTLSLSPGEGATLSCRASQSVSSTYLAWYQQKPGQAPRLLIYEASKRATGTPARFSGSGSGTDFTLSISSLEPEDFAVYYCQHRHNWPPQWTFGQGTKVEVK
# notes: full length IgG1 made from a human Fab phage clone; also called ATCC PTA-6258
# B2: human anti-HMG1 antibody E11 (antibody, IgG1, V domains shown)
# VH: EVQLLESGGGLVQPGGSLRLSCAASGFTFSRYQMNWVRQAPGKGLEWVSSISPSGGHTHYADSVKGRFTISRDNSKNTLYLQMNSLRAEDTAVYYCAKDGRQGKISTVDHWGQGTLVTVSS
# VL: DIQMTQSPGTLSLSPGERATLSCRASQSVRSNFLAWYQQKPGQAPRLLIYGASRRASGIPDRFSGSGFGADFTLSISRLEPEDFAVYYCQQYGSSPNTFGQGSRVEIK
# notes: full length IgG1 made from a human Fab phage clone
# B3: human anti-HMG1 antibody S6 (antibody, V domains shown)
# VH: EVQLLESGGGLVQPGGSLRLSCAASGFTFSWYDMSWVRQAPGKGLEWVSRISPSGGYTMYADSVKGRFTISRDNSKNTLYLQMNSLRAEDTAVYYCARLEVGATSGGTAFDIWGQGTMVTVSS
# VL: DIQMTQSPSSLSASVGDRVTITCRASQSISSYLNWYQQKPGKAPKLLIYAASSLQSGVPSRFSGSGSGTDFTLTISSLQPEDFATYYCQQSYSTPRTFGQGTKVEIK
# notes: full length IgG1 made from a human Fab phage clone; two paragraphs print 'S4' for the PTA-6143 deposit; also called ATCC PTA-6143
# Columns and labels:
# [1] = biological target: T1, HMGB1 in joint lysate of adjuvant …; experiment: sandwich ELISA: antibody captured on anti-human Fc, AIA joint lysate added, mouse anti-HMGB1 detection, OD 450
# Procedure: (§1) HMGB1 Detection from Biological Samples: For detection of the HMGB1 from AIA joint homogenates and peritonitis sera, sandwich ELISA was performed. Goat anti-human Fc (Pierce) 14 μg/ml in PBS was coated on Immunlon IV microtiter plate over night at 4° C. After washing and blocking with 5% milk 1 hr at room temperature, G4 or S6 in blocking buffer (10 μg/ml) were added to each well of the blocked plate. The plate was washed 1 hour later and 25 μl of AIA homogenates containing 0.8 μg/ml of HMGB1 or peritonitis sera containing 7 μg/ml of HMGB1 in 0.5 M NaCl/blocking buffer were added to the wells at two fold serial dilutions. The unbound materials were removed by washing one hr after incubation. The bound HMGB1 was detected by a mouse anti-HMGB1 antibody at 2 μg/ml followed by an anti-mouse antibody conjugated with horseradish peroxidase. Mouse peritonitis sera was obtained by heart puncture 7 days after infection with heat killed staphylococcus aureus. Joint lysate was prepared from the whole paw of AIA rats as described in Example 6 below. Human sepsis sera were purchased from a commercial source.
# [2] = biological target: T2, native nuclear HMG1 from freeze-thawed …; experiment: sandwich ELISA: antibody titrated and captured on anti-human IgG Fc, native nuclear HMG1 at 0.7 ug/ml, mouse anti-HMGB1 and anti-mouse IgG-HRP, OD 450
# Procedure: (§2) Sandwich ELISA (soluble HMG1): Immunoplates (EIA/RIA plate, High binding, Costar) were coated with anti human IgG Fc at 10 μg/ml in PBS (pH 7.2) and incubated at 4° C. overnight. The coating reagent was removed and the plates were rinsed briefly with PBS. The plates were then blocked with 4% milk for 1 hour at 37° C. and rinsed with PBS. The anti-HMG1 antibodies were diluted in 4% milk. For serial dilutions, the antibodies were used at a starting concentration of 20 μg/ml. The diluted anti-HMG1 antibodies were then added into plate and incubated for 1 hr at 37° C. The plate was then washed 10 times with PBST (PBS/0.1% tween 20) and incubate with antigen (HMGB1, 2 μg/ml; or 0.7 μg/ml for native HMGB1) in 4% milk and incubated at 37° C. for 1 h. The plate was then wash 10 times and incubated with mouse anti-HMGB1, 1 μg/ml in 4% milk at 37° C. for 1 h. The plate was washed 10 times and incubated with anti-mouse IgG-HRP at 1:1000 at 37° C. for 1 h. The plate was then washed and developed. HRP activity was detected with Sureblue HRP substrate (KPL). Plates were read at 450 nm using a Kinetic Microplate Reader (Molecular Devices).
# [3] = biological target: T3, activated HMG1 from LPS stimulated …; experiment: sandwich ELISA: antibody titrated and captured on anti-human IgG Fc, activated HMG1 in solution, mouse anti-HMGB1 detection, OD 450
# Procedure: as §2
# [4] = biological target: T4, recombinant rat HMGB-1 labelled with …; experiment: inhibition of binding of 2 nM Eu-labelled recombinant rat HMGB-1 to THP-1 cells
# Procedure: HMG1 binding to THP-1 Cells: Recombinant rat HMGB-1 was labeled using Eu-labelling Kit from PerkinElmer. Molar ratio of HMGB-1 to Eu is 1:5. THP-1 were cultured as the protocol from ATCC. Cells were harvested and suspended at concentration 1×10⁶/ml in assay buffer containing 1×DELFIA L*R binding buffer (PerkinElmer), 50% of DELFIA stabilizer (PerkinElmer) and 0.05% of sodium azide. 100 μl of cells (1×10⁵) was added into wells in 96 well cell culture plate. The plate was incubated with gentle shaking at 4° C. for one hour. 100 μl of assay buffer containing 2 nM of Europium-labeled HMGB-1 mixed with various concentrations (333, 166.5, 83.25, 41.6, 20.8, 10.4 and 5.2 nM) of human anti-HMGB1 antibodies E11 or G2 or soluble human RAGE-Fc, were added into each wells respectively. After one hour incubation with gentle shaking at 4° C., the cells were washed four times with 1×L*R wash buffer (PerkinElmer) by centrifuging at 1200 rpm×5 min. 200 μl of enhancement solution was added into each well to dissociate and enhance Eu fluorescence at 615 nm. The fluorescence was measured with Wallac Victor Fluorometer. Assay was performed in triplicate and human antibody R3-47 was used the negative isotype control.
# [5] = biological target: T6, recombinant HMG1 produced in E. coli as a calmodulin binding protein (CBP) fusion (human); experiment: sandwich ELISA, captured antibody and soluble HMG1, OD 450
# T6 construct: also called rHMG1; rHMGB1
# Procedure: as §2
# [6] = biological target: T5, HMGB1 in sera of septic peritonitis mice; experiment: sandwich ELISA: antibody captured on anti-human Fc, peritonitis serum added, mouse anti-HMGB1 detection, OD 450
# Procedure: as §1
binder,measurement,setting,value
B1,binding result,[1],binds
same,binding result,[2],binds
same,binding result,[3],binds
B2,IC50,[4],48.1 nM
same,EC50 (read off the curve),[5],~0.4 µg/mL
B3,binding result,[6],binds
